# Experimental data reported in PMC2195602 (The Journal of Experimental Medicine, 1999).
# T1: human FcγRIIa (CD32) expressed on transfected COS-7 cells (human, UniProt P12318 34-317)
# T1 sequence (looked up): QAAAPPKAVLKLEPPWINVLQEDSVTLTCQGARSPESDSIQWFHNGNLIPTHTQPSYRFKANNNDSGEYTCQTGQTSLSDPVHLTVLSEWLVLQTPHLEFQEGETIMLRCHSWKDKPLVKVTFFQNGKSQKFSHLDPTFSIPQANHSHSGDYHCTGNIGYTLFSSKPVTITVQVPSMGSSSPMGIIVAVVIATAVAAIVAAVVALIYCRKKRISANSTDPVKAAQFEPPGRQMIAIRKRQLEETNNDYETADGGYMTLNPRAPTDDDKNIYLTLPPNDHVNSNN
# Legend:
# [1] = biological target: T1, human FcγRIIa (CD32) expressed on …; assay: flow cytometry on cells
# [2] = biological target: FcγRII (CD32) on K-562 cells (human (endogenous in K-562)) (UniProt P12318); assay: flow cytometry on cells
binder,measurement,setting,value
"C-reactive protein (CRP), human (natural protein, UniProt P02741 19-224, looked up) QTDMSRKAFVFPKESDTSYVSLKAPLTKPLKAFTVCLHFYTELSSTRGYSIFSYATKRQDNEILIFWSKDIGYSFTVGGSEILFEVPEVTVAPVHICTSWESASGIVEFWVDGKPRVRKSLKKGYTVGAEASIILGQEQDSFGGNFEGSQSLVGDIGNVNMWDFVLSPDEINTIYLGGPFSPNVLNWRALKYEVQGEVFTKPQLWP",Kd,[1],66 nM
same,Kd,[2],97 nM
